The values below come from article PMC10842878 (Peptides, 2023).

The format of data set [1] is physicochemical. Particulars: 150 μM peptide, 50 mM sodium phosphate buffer pH 7, 37°C, 2 weeks.
For data set [2] the following is noted: H2O; cited from earlier work.

Entries after “also recorded” stand apart in the source; their conditions may differ.

In the case of “HSQGTFTSDYSKYLDSrRAQDFVQWLMNTZ [compound 7]”, the “Chemical stability (% of original concentration retained in solution)” value in data set [1] is reported as “highest chemical stability; also recorded: highest % concentration retained”. As for `C/C1=C2/[N-]C([C@H](CC(N)=O)[C@@]2(C)CCC(=O)NCC(C)O)[C@]2(C)N=C(/C(C)=C3N=C(/C=C4N=C1[C@@H](CCC(N)=O)C\4(C)C)[C@@H](CCC(N)=O)[C@]\3(C)CC(N)=O)[C@@H](CCC(N)=O)[C@]2(C)CC(N)=O.[C-]#N.[C-]#N.[Co]` (some centres unmarked) [Cbi, dicyanocobinamide], the Water solubility in data set [2] is 400 mg/mL.
